Values quoted from earlier work, collected in article PMC6691393.

Target: Survivin BIR (Homo sapiens) (UniProt O15392)
Sequence of UniProt O15392 (O15392 15-91): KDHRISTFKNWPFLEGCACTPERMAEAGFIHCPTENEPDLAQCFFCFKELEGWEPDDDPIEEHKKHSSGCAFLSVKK

SMAC/Diablo N-terminal peptide (from UniProt Q9NR28)
Kd: 121 µM
